# From US20130019326
# Assays:
# [1] = system: FLAG-PPAR gamma, wild type
# [2] = system: Rb protein (Cell Signaling Technology)
# [3] = system: purified histone H1 (Millipore)
Substance,"in vitro CDK kinase assay, phosphorylation of the substrate [1]","in vitro CDK5 kinase assay, phosphorylation of the substrate [2]","in vitro CDK kinase assay, phosphorylation of the substrate (FLAG-PPAR gamma S273A)","in vitro CDK kinase assay, phosphorylation of the substrate [3]"
active cdk5/p35 kinase,The cdk5 site in murine PPAR gamma can be phosphorylated when incubated in vitro with cdk5 and its activating cofactor p35,incubation with rosiglitazone does not inhibit the ability of cdk5 to phosphorylate the Rb protein,Mutation of serine 273 to alanine completely blocks phosphorylation of PPAR gamma,"PPAR gamma is phosphorylated as efficiently under these conditions as is histone H1, a known substrate of the cdk5/p35 complex"
active cdk2/cyclin E kinase,Other members of the cdk protein family did not phosphorylate PPAR gamma,,,
active cdk4/cyclin D1 kinase,Other members of the cdk protein family did not phosphorylate PPAR gamma,,,
active cdk1/cdc2 kinase,Other members of the cdk protein family did not phosphorylate PPAR gamma,,,
active cdk2/cyclin A kinase,Other members of the cdk protein family did not phosphorylate PPAR gamma,,,
